Results reported in paper doi:10.1101/2022.01.14.473406.
Read-outs that look alike come from different tables or passages of the source.

Assays:
[1] = target: AP-Endonuclease 1 (APE1) (human) (UniProt P27695); assay: SPR
[2] = target: T1, DNA ligase I EE/AA (C-terminal, delta261) (Homo sapiens, UniProt P18858 262-919, E346A;E592A); assay: X-ray crystallography
[3] = target: T1, DNA ligase I EE/AA (C-terminal, …); assay: X-ray crystallography; remark: listed apart in the source

T1 sequence (P18858 262-919 E346A/E592A): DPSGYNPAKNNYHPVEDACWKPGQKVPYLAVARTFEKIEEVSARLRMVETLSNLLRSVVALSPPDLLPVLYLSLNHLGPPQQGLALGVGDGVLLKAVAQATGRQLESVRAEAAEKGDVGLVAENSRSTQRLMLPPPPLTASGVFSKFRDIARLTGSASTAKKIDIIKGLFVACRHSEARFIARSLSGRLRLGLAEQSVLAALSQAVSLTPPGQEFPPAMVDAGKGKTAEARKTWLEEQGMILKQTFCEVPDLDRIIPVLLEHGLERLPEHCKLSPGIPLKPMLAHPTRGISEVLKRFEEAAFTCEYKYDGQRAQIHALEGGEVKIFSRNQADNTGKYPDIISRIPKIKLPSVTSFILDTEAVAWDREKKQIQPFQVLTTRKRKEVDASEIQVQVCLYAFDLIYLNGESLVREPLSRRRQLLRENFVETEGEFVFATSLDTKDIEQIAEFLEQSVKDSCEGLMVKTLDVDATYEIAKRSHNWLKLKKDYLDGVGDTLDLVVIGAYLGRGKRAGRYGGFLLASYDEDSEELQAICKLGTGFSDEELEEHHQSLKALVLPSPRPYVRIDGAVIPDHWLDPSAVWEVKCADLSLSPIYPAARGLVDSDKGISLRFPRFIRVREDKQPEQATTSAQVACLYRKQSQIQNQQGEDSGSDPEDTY
Chain of AP-Endonuclease 1 (APE1) (human) (P27695 whole entry): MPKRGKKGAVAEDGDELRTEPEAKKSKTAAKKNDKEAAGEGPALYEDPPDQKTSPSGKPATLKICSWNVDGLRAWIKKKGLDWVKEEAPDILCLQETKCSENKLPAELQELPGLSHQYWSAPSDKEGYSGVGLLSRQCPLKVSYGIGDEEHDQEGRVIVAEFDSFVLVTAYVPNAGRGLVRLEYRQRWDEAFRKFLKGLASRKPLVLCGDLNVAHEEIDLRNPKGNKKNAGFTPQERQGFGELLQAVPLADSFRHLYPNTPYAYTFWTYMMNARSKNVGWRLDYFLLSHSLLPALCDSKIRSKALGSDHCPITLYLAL

## DNA ligase I (LIG1) (from UniProt P18858 1-919) (enzyme)
[1]
  Kd: 117 nM

B1: nick DNA 3'-dG:T (dsDNA)
DNA 1: GCTGATGCGTG
DNA 2: GTCGGAC
DNA 3: GTCCGACTACGCATCAGC
modifications: 5'-phosphate on downstream strand; 5'-adenylated (DNA-AMP) in crystal
[2]
  binding result: binds

B2: nick DNA 3'-dA:T (dsDNA)
DNA 1: GCTGATGCGTA
DNA 2: GTCGGAC
DNA 3: GTCCGACTACGCATCAGC
modifications: 5'-phosphate on downstream strand; 5'-adenylated (DNA-AMP) in crystal
[2]
  binding result: binds

B3: nick DNA 3'-dA:C (dsDNA)
DNA 1: GCTGATGCGTA
DNA 2: GTCGGAC
DNA 3: GTCCGACCACGCATCAGC
modifications: 5'-phosphate on downstream strand
[3]
  binding result: binds
